Each molecule was assayed on firefly luciferase gene expression in HEK 293 cells (assay: Firefly luciferase assay of HEK 293 cells transfected with splicing / Intron-Exon-Intron constructs (no ligand)).
Format: cell-based
Method: Transfection: 3.5×10^4 HEK 293 cells were plated in 96-well flat bottom plate the day before transfection. Plasmid DNA (500 ng) was added to a tube or a 96-well U-bottom plate. Separately, TransIT-293 reagent (Mirus; 1.4 uL) was added to 50 μL Opti-mem I media (Life Technologies), and allowed to sit for 5 minutes at room temperature (RT). Then, 50 μL of this diluted transfection reagent was added to the DNA, mixed, and incubated at room temperature (“RT”) for 20 min. Finally, 7 μL of this solution was added to a well of cells in the 96-well plate.
Firefly luciferase assay of cultured cells: 24 hours after media change, plates were removed from the incubator, and equilibrated to RT for several minutes on a lab bench, then aspirated. Glo-lysis buffer (Promega, 100 μL, RT) was added, and the plates allowed to remain at RT for at least 5 minutes. Then, the well contents were mixed by 50 μL trituration, and 20 μL of each sample was mixed with 20 μL of bright-glo reagent (Promega) that had been diluted to 10% in glo-lysis buffer. 96 wells were spaced on an opaque white 384-well plate. Following a 5 min incubation at RT, luminescence was measured using Tecan machine with 500 mSec read time. The luciferase activity was expressed as mean relative light unit (RLU)±S.D.
The constructs were verified by DNA sequencing (Genewiz). DNA was transfected in HEK 293 cells and assayed for luciferase activity as described in Example 1.
Sequences containing the DHFR exon 2 with native 3′ and 5′ ss sequences, in which the 5′ss was embedded in a hairpin structure were synthesized (IDT), and cloned into the indicated vector using Golden Gate cloning strategy (NEB). Constructs were transfected into HEK 293 cells and assayed for luciferase activity as described in Example 1.

| Molecule | luciferase expression relative to control constructs (in words) |
| --- | --- |
| Con 1: luciferase gene with truncated human beta-globin intron 2 (IVS2Δ), original IVS2 splice sites; SEQ ID NO: 1 (nucleic acid, Luci-IVS-Luci in construct Con1 Human beta- globin intron 2 containing a deletion (IVS2) is in lowercase and flanking luciferase sequence is in uppercase.) DNA: GAGGTTCCATCTGCCAGGTATCAGGGTGAGTCTATGGGACCCTTGATGTTTTCTTTCCCCTTCTTTTCTATGGTTAAGTTCATGTCATAGGAAGGGGAGAAGTAACAGGGTACACATATTGACCAAATCAGGGTAATTTTGCATTTGTAATTTTAAAAAATGCTTTCTTCTTTTAATATACTTTTTTGTTTATCTTATTTCTAATACTTTCCCTAATCTCTTTCTTTCAGGGCAATAATGATACAATGTATCATGCCTCTTTGCACCATTCTAAAGAATAACAGTGATAATTTCTGGGTTAAGGCAATAGCAATATTTCTGCATATAAATATTTCTGCATATAAATTGTAACTGATGTAAGAGGTTTCATATTGCTAATAGCAGCTACAATCCAGCTACCATTCTGCTTTTATTTTATGGTTGGGATAAGGCTGGATTATTCTGAGTCCAAGCTAGGCCCTTTTGCTAATCATGTTCATACCTCTTATCTTCCTCCCACAGCAAGGATATGGGCTCACTGAGACTACATCAGCTATTCT | did not affect gene expression |
| Con 2: luciferase with IVS2Δ, altered 5′ss; SEQ ID NO: 2 (nucleic acid, Luci-IVS-Luci in construct Con2) DNA: GATTACACCCGAGGGGGATGATAAAGTAAGCCTATGGGACCCTTGATGTTTTCTTTCCCCTTCTTTTCTATGGTTAAGTTCATGTCATAGGAAGGGGAGAAGTAACAGGGTACACATATTGACCAAATCAGGGTAATTTTGCATTTGTAATTTTAAAAAATGCTTTCTTCTTTTAATATACTTTTTTGTTTATCTTATTTCTAATACTTTCCCTAATCTCTTTCTTTCAGGGCAATAATGATACAATGTATCATGCCTCTTTGCACCATTCTAAAGAATAACAGTGATAATTTCTGGGTTAAGGCAATAGCAATATTTCTGCATATAAATATTTCTGCATATAAATTGTAACTGATGTAAGAGGTTTCATATTGCTAATAGCAGCTACAATCCAGCTACCATTCTGCTTTTATTTTATGGTTGGGATAAGGCTGGATTATTCTGAGTCCAAGCTAGGCCCTTTTGCTAATCATGTTCATACCTCTTATCTTCCTCCCACAGCCGGGCGCGGTCGGTAAAGT | expression levels similar to Con 1 and Con 8 |
| Con 3: luciferase with IVS2Δ, altered 5′ss; SEQ ID NO: 3 (nucleic acid, Luci-IVS-Luci in construct Con3) DNA: TTCTTCGCCAAAAGCAGTAAGTCTATGGGACCCTTGATGTTTTCTTTCCCCTTCTTTTCTATGGTTAAGTTCATGTCATAGGAAGGGGAGAAGTAACAGGGTACACATATTGACCAAATCAGGGTAATTTTGCATTTGTAATTTTAAAAAATGCTTTCTTCTTTTAATATACTTTTTTGTTTATCTTATTTCTAATACTTTCCCTAATCTCTTTCTTTCAGGGCAATAATGATACAATGTATCATGCCTCTTTGCACCATTCTAAAGAATAACAGTGATAATTTCTGGGTTAAGGCAATAGCAATATTTCTGCATATAAATATTTCTGCATATAAATTGTAACTGATGTAAGAGGTTTCATATTGCTAATAGCAGCTACAATCCAGCTACCATTCTGCTTTTATTTTATGGTTGGGATAAGGCTGGATTATTCTGAGTCCAAGCTAGGCCCTTTTGCTAATCATGTTCATACCTCTTATCTTCCTCCCACAGCTCTGATTGACAAATACG | expression levels similar to Con 1 and Con 8 |

Source: patent US12416018B2, “Regulation of gene expression by aptamer-mediated modulation of alternative splicing” (MEIRAGTX GENE REGULATION LIMITED, priority 2015, dated 2025)
